Reference: PMC9352680, “A comprehensive thermodynamic model for RNA binding by the Saccharomyces cerevisiae Pumilio protein PUF4”
Numbering of substitutions follows the chain as printed. In names and notes the source's numbering stands.

T1: PUF4 RNA-binding domain (Saccharomyces cerevisiae, UniProt P25339 537-888)
T1 sequence: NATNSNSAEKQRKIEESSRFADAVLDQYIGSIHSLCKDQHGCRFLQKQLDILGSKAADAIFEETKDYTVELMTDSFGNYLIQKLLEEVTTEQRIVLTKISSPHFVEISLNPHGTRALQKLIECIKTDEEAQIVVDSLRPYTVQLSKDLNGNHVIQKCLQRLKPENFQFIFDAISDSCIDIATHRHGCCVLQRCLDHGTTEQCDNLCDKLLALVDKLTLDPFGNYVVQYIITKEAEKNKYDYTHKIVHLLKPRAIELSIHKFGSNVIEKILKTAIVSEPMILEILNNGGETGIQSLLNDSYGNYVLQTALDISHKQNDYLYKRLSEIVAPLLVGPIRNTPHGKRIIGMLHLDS

B1: Ib_S1_P5E.1_K5.1_C5.1_H5.1_[T1A]_A5.1_[T5C]_F5.1_T5.1 (ssRNA)
RNA: UCUCUUAGUACUAUUAUCUCUU
B2: Ib_S1_P5E.1_K5.1_C5.1_H5.1_[T1C]_A5.1_[T5C]_F5.1_T5.1 (ssRNA)
RNA: UCUCUUCGUACUAUUAUCUCUU
B3: Ib_S1_P5E.1_K5.1_C5.1_H5.1_[T1A]_A5.1_[T6A]_F5.1_T5.1 (ssRNA)
RNA: UCUCUUAGUAUAAUUAUCUCUU
B4: Id_ii_S4_P3E.2_K3.1_C3.2_[C-2T]_H3.1_A3.1_F3.1_T3.2 (ssRNA)
RNA: UUUGACAACUGAUCGUUCUUUCUUUUGUAUAUAUAUUCUUUCUCGAUCAGUUGUCUUU
B5: Id_ii_S4_P3E.3_K3.2_C3.2_[C-2G]_[T-1C]_H3.2_A3.1_F3.1_T3.2_[T9A]_[A10C] (ssRNA)
RNA: B4 RNA with U24G, U25C, G27A, U34A, A35C
B6: Id_ii_S4_P3E.2_K3.1_C3.2_[C-2A]_H3.1_A3.1_F3.1_T3.2_[T9A] (ssRNA)
RNA: B4 RNA with U24A, U34A
B7: Id_ii_S4_P3E.2_K3.1_C3.2_[T-1G]_H3.1_A3.1_F3.1_T3.2_[T9A]_[A10C] (ssRNA)
RNA: B4 RNA with U24C, U25G, U34A, A35C
B8: Id_ii_S4_P3E.3_K3.2_C3.2_[C-2T]_[T-1C]_H3.2_A3.1_F3.1_T3.2_[T9A]_[A10T] (ssRNA)
RNA: B4 RNA with U25C, G27A, U34A, A35U
B9: Id_ii_S4_P3E.3_K3.2_C3.2_[C-2T]_[T-1G]_H3.2_A3.1_F3.1_T3.2_[T9G]_[A10C] (ssRNA)
RNA: B4 RNA with U25G, G27A, U34G, A35C
B10: Id_ii_S4_P3E.2_K3.1_C3.2_[T-1C]_H3.1_A3.1_F3.1_T3.2_[T9C]_[A10G] (ssRNA)
RNA: B4 RNA with U24C, U25C, U34C, A35G
B11: Id_ii_S4_P3E.2_K3.1_C3.2_[T-1C]_H3.1_A3.1_F3.1_T3.2 (ssRNA)
RNA: B4 RNA with U24C, U25C
B12: Id_ii_S4_P3E.2_K3.1_C3.2_[T-1C]_H3.1_A3.1_F3.1_T3.2_[A10G] (ssRNA)
RNA: B4 RNA with U24C, U25C, A35G
B13: Id_ii_S4_P3E.3_K3.2_C3.2_[C-2G]_[T-1C]_H3.2_A3.1_F3.1_T3.2_[A10T] (ssRNA)
RNA: B4 RNA with U24G, U25C, G27A, A35U
B14: Id_ii_S4_P3E.2_K3.1_C3.2_[T-1A]_H3.1_A3.1_F3.1_T3.2_[T9G]_[A10C] (ssRNA)
RNA: B4 RNA with U24C, U25A, U34G, A35C
B15: Id_ii_S4_P3E.2_K3.1_C3.2_[C-2A]_H3.1_A3.1_F3.1_T3.2_[A10T] (ssRNA)
RNA: B4 RNA with U24A, A35U
B16: Id_ii_S4_P3E.2_K3.1_C3.2_[T-1A]_H3.1_A3.1_F3.1_T3.2 (ssRNA)
RNA: B4 RNA with U24C, U25A
B17: Id_ii_S4_P3E.2_K3.1_C3.2_[T-1G]_H3.1_A3.1_F3.1_T3.2_[A10T] (ssRNA)
RNA: B4 RNA with U24C, U25G, A35U
B18: Id_ii_S4_P3E.2_K3.1_C3.2_[T-1G]_H3.1_A3.1_F3.1_T3.2 (ssRNA)
RNA: B4 RNA with U24C, U25G
B19: Id_ii_S4_P3E.3_K3.2_C3.2_[C-2T]_[T-1C]_H3.2_A3.1_F3.1_T3.2_[T9C]_[A10G] (ssRNA)
RNA: B4 RNA with U25C, G27A, U34C, A35G
B20: Id_ii_S4_P3E.3_K3.2_C3.2_[C-2G]_[T-1G]_H3.2_A3.1_F3.1_T3.2_[T9A] (ssRNA)
RNA: B4 RNA with U24G, U25G, G27A, U34A
B21: Id_ii_S4_P3E.3_K3.2_C3.2_[C-2G]_[T-1C]_H3.2_A3.1_F3.1_T3.2_[T9C]_[A10T] (ssRNA)
RNA: B4 RNA with U24G, U25C, G27A, U34C, A35U
B22: Id_ii_S4_P3E.2_K3.1_C3.2_[C-2A]_H3.1_A3.1_F3.1_T3.2_[A10G] (ssRNA)
RNA: B4 RNA with U24A, A35G
B23: Id_ii_S4_P3E.3_K3.2_C3.2_[C-2T]_[T-1C]_H3.2_A3.1_F3.1_T3.2_[T9C] (ssRNA)
RNA: B4 RNA with U25C, G27A, U34C
B24: Id_ii_S4_P3E.2_K3.1_C3.2_[T-1A]_H3.1_A3.1_F3.1_T3.2_[T9A]_[A10C] (ssRNA)
RNA: B4 RNA with U24C, U25A, U34A, A35C
B25: Id_ii_S4_P3E.2_K3.1_C3.2_[C-2A]_[T-1C]_H3.1_A3.1_F3.1_T3.2_[A10C] (ssRNA)
RNA: B4 RNA with U24A, U25C, A35C
B26: Id_ii_S4_P3E.3_K3.2_C3.2_[C-2G]_H3.2_A3.1_F3.1_T3.2_[T9A]_[A10G] (ssRNA)
RNA: B4 RNA with U24G, G27A, U34A, A35G
B27: Id_ii_S4_P3E.2_K3.1_C3.2_[C-2A]_[T-1A]_H3.1_A3.1_F3.1_T3.2_[T9A]_[A10G] (ssRNA)
RNA: B4 RNA with U24A, U25A, U34A, A35G
B28: Id_ii_S4_P3E.2_K3.1_C3.2_H3.1_A3.1_F3.1_T3.2_[T9A] (ssRNA)
RNA: B4 RNA with U24C, U34A
B29: Id_ii_S4_P3E.2_K3.1_C3.2_[C-2A]_[T-1C]_H3.1_A3.1_F3.1_T3.2_[T9A]_[A10T] (ssRNA)
RNA: B4 RNA with U24A, U25C, U34A, A35U

Biological target: T1, PUF4 RNA-binding domain
Experiment: Mg; RNA-MaP; 20 mM Na-HEPES pH 7.4, 30 mM KOAc, 0.75 mM MgCl2, 0.1% Tween-20, 5% glycerol, 0.1 mg/mL BSA, 2 mM DTT; 25 C; 0.0125-409.6 nM protein
Settings: tags: N-His6-TEV cleaved; C-SNAP kept, Cy3B-labelled; label: tethered on chip by stalled RNA polymerase

| Binder | Kd [nM] |
| --- | --- |
| B1 | 1400 |
| B2 | 592 |
| B3 | 1030 |
| B4 | 2.14 |
| B5 | 1200 |
| B6 | 11.8 |
| B7 | 8.59 |
| B8 | 151 |
| B9 | 2.89 |
| B10 | 6.54 |
| B11 | 0.873 |
| B12 | 1.76 |
| B13 | 149 |
| B14 | 2.75 |
| B15 | 2.72 |
| B16 | 1.73 |
| B17 | 1.48 |
| B18 | 1.4 |
| B19 | 467 |
| B20 | 676 |
| B21 | 557 |
| B22 | 10.6 |
| B23 | 252 |
| B24 | 4.63 |
| B25 | 2.26 |
| B26 | 304 |
| B27 | 13.3 |
| B28 | 3.34 |
| B29 | 2.65 |
